Results on 2 compounds are retold here after patent publication US20170119864A1, “SACCHARIDE VACCINE FORMULATION” (GLAXOSMITHKLINE BIOLOGICALS S.A., priority 2013, published 2017).

The nature of data set [1]: RP-HPLC MAG-Tn3 content before and after 0.2 μm filtration. It counts as physicochemical. The conditions noted are these: L-arginine-L-arginine-mono-hydrochloride buffer system. How it is done:
RP-HPLC was performed to assess MAG-Tn3 content in the formulations before and after filtration with a 0.2 μm syringe filter. A Waters 2996 HPLC equipped with UV detection was used with a Poros R 1/10 column from Applied Biosciences and a 0-100% acetonitrile in 0.1% triflouroacetic acid gradient. Size-exclusion chromatography was performed using a Waters 2996 HPLC equipped with a fluorescence detector (Waters) to assess the aggregation profiles of the resulting formulations using a TSKgel G3000PWxl column (Tosoh Bioscience LLC) and a mobile phase of 200 mM NaCl. SDS-PAGE analysis was done using 4-12% Bis-Tris gels (Invitrogen) and MES running buffer (Invitrogen). The gels were stained using Invitrogen's SilverQuest. Centrifuged and non-centrifuged samples were run on gel to assess the presence of precipitate in the formulations. Centrifugation was performed for 15 minutes at 18 000 g. […]
RP-HPLC was performed to assess MAG-Tn3 content in the formulations before and after filtration with a 0.2 μm syringe filter. […] Size-exclusion chromatography was performed using a Waters 2996 HPLC equipped with a fluorescence detector (Waters) to assess the aggregation profiles of the resulting formulations using a TSKgel G3000PWxl column (Tosoh Bioscience LLC) and a mobile phase of 200 mM NaCl. […]

For data set [2] the following is noted: value used in equation 1; cited from earlier work.

Regarding `CC[C@H](C)[C@H](NC(=O)CNC(=O)[C@@H](NC(=O)[C@H](Cc1ccccc1)NC(=O)[C@H](CCCCN)NC(=O)[C@H](CO)NC(=O)[C@H](CC(N)=O)NC(=O)[C@H](C)NC(=O)[C@H](CCCCN)NC(=O)[C@@H](NC(=O)[C@H](Cc1ccc(O)cc1)NC(=O)[C@H](CCC(N)=O)NC(=O)C(NC(=O)C(NC(=O)C(N)CO[C@H]1O[C@H](CO)[C@H](O)[C@H](O)[C@H]1NC(C)=O)C(C)O[C@H]1O[C@H](CO)[C@H](O)[C@H](O)[C@H]1NC(C)=O)C(C)O[C@H]1O[C@H](CO)[C@H](O)[C@H](O)[C@H]1NC(C)=O)[C@@H](C)CC)[C@@H](C)CC)C(=O)N[C@H](C(=O)N[C@@H](CCC(=O)O)C(=O)N[C@@H](CC(C)C)C(=O)NCCCC[C@H](NC(=O)[C@H](CC(C)C)NC(=O)[C@H](CCC(=O)O)NC(=O)[C@@H](NC(=O)[C@@H](NC(=O)CNC(=O)[C@@H](NC(=O)[C@H](Cc1ccccc1)NC(=O)[C@H](CCCCN)NC(=O)[C@H](CO)NC(=O)[C@H](CC(N)=O)NC(=O)[C@H](C)NC(=O)[C@H](CCCCN)NC(=O)[C@@H](NC(=O)[C@H](Cc1ccc(O)cc1)NC(=O)[C@H](CCC(N)=O)NC(=O)C(NC(=O)C(NC(=O)C(N)CO[C@H]1O[C@H](CO)[C@H](O)[C@H](O)[C@H]1NC(C)=O)C(C)O[C@H]1O[C@H](CO)[C@H](O)[C@H](O)[C@H]1NC(C)=O)C(C)O[C@H]1O[C@H](CO)[C@H](O)[C@H](O)[C@H]1NC(C)=O)[C@@H](C)CC)[C@@H](C)CC)[C@@H](C)CC)[C@@H](C)O)C(=O)NCCCC[C@H](NC(=O)[C@H](CCCCNC(=O)[C@H](CC(C)C)NC(=O)[C@H](CCC(=O)O)NC(=O)[C@@H](NC(=O)[C@@H](NC(=O)CNC(=O)[C@@H](NC(=O)[C@H](Cc1ccccc1)NC(=O)[C@H](CCCCN)NC(=O)[C@H](CO)NC(=O)[C@H](CC(N)=O)NC(=O)[C@H](C)NC(=O)[C@H](CCCCN)NC(=O)[C@@H](NC(=O)[C@H](Cc1ccc(O)cc1)NC(=O)[C@H](CCC(N)=O)NC(=O)C(NC(=O)C(NC(=O)C(N)CO[C@H]1O[C@H](CO)[C@H](O)[C@H](O)[C@H]1NC(C)=O)C(C)O[C@H]1O[C@H](CO)[C@H](O)[C@H](O)[C@H]1NC(C)=O)C(C)O[C@H]1O[C@H](CO)[C@H](O)[C@H](O)[C@H]1NC(C)=O)[C@@H](C)CC)[C@@H](C)CC)[C@@H](C)CC)[C@@H](C)O)NC(=O)[C@H](CC(C)C)NC(=O)[C@H](CCC(=O)O)NC(=O)[C@@H](NC(=O)[C@@H](NC(=O)CNC(=O)[C@@H](NC(=O)[C@H](Cc1ccccc1)NC(=O)[C@H](CCCCN)NC(=O)[C@H](CO)NC(=O)[C@H](CC(N)=O)NC(=O)[C@H](C)NC(=O)[C@H](CCCCN)NC(=O)[C@@H](NC(=O)[C@H](Cc1ccc(O)cc1)NC(=O)[C@H](CCC(N)=O)NC(=O)C(NC(=O)C(NC(=O)C(N)CO[C@H]1O[C@H](CO)[C@H](O)[C@H](O)[C@H]1NC(C)=O)C(C)O[C@H]1O[C@H](CO)[C@H](O)[C@H](O)[C@H]1NC(C)=O)C(C)O[C@H]1O[C@H](CO)[C@H](O)[C@H](O)[C@H]1NC(C)=O)[C@@H](C)CC)[C@@H](C)CC)[C@@H](C)CC)[C@@H](C)O)C(=O)NCCC(=O)O)[C@@H](C)O` (stereo partly drawn) [MAG-Tn3], the “dose up to which MAG-Tn3 appears soluble” value in data set [1] (with CpG7909) was no more than 450 μg/dose. The solubility in data set [1] (with CpG7909, final reconstituted vaccine, read-out: concentration up to which MAG-Tn3 appears soluble) is no more than 900 µg/mL.
`N=C(N)NCCC[C@H](N)C(=O)O` [Arginine]: the pKa entry in data set [2] is on record as “molar ratios of Arg:ArgHCl (Arg pKa = 8.991)”.
